Test [1] has as its target wild-type HIV-1NL4-3 Env (unlabeled gp120 protomers of the trimer on virions) (HIV-1 NL4-3). Put plainly: intermolecular smFRET; CD4 bound to an unlabeled gp120 of the trimer, donor Cy3 on the neighbouring labelled gp120.
The target in test [2] is HIV-1 Env (NL4-3) labeled with Cy3 at the LV4-2-A1 loop insertion, on virions (HIV-1 NL4-3). Kind of test: intermolecular smFRET; high-FRET state assigned to CD4 bound to the Cy3-labelled gp120.

Regarding “Cy5-labeled soluble CD4(C92) (D1-D2) (from UniProt P01730 26-208) (receptor)”, in test [1], the FRET state (intermediate) (FRET efficiency) was determined as 0.3 and the FRET state (low) (FRET efficiency) is 0.2. Besides, the FRET state (high) (FRET efficiency) in test [2] was determined as 0.85.

(Values after patent US20150166611A1.)
